Data published in patent US12397036B2, “Peptide exchange protein” (Cambridge Enterprise Limited, priority 2018, dated 2025).

B1: TAPBPR-Her2-scFv: recombinant TAPBPR fused to a scFv specific for Her2; SEQ ID NO: 8 (protein)
chain: MGTQEGWCLLLCLALSGAAETKPHPAEGQWRAVDVVLDCFLVKDGAHRGALASSEDRARASLVLKQVPVLDDGSLEDFTDFQGGTLAQDDPPIIFEASVDLVQIPQAEALLHADCSGKEVTCEISRYFLQMTETTVKTAAWFMANVQVSGGGPSISLVMKTPRVAKNEVLWHPTLNLPLSPQGTVRTAVEFQVMTQTQSLSFLLGSSASLDCGFSMAPGLDLISVEWRLQHKGRGQLVYSWTAGQGQAVRKGATLEPAQLGMARDASLTLPGLTIQDEGTYICQITTSLYRAQQIIQLNIQASPKVRLSLANEALLPTLICDIAGYYPLDVVVTWTREELGGSPAQVSGASFSSLRQSVAGTYSISSSLTAEPGSAGATYTCQVTHISLEEPLGASTQVVPPERRHVGGGGSGGGGSGGGGSTSADLGSRAMAQVQLVQSGAEVKKPGESLKISCKGSGYSFTSYWIAWVRQMPGKGLEYMGLIYPGDSDTKYSPSFQGQVTISVDKSVSTAYLQWSSLKPSDSAVYFCARHDVGYCSSSNCAKWPEYFQHWGQGTLVTVSSGGGGSGGGGSGGGGSQSVLTQPPSVSAAPGQKVTISCSGSSSNIGNNYVSWYQQLPGTAPKLLIYDHTNRPAGVPDRFSGSKSGTSASLAISGFRSEDEADYYCASWDYTLSGWVFGGGTKLTVLGAAAGGGGS
modifications: TAPBPR-Her2scFv
B2: mouse TAPBPR: exogenous luminal domains of mouse TAPBPR; SEQ ID NO: 22 (protein)
chain: DPPTAPTTAERQRQPTDIILDCFLVTEDRHRGAFASSGDRERALLVLKQVPVLDDGSLEGITDFQGSTETKQDSPVIFEASVDLVQIPQAEALLHADCSGKAVTCEISKYFLQARQEATFEKAHWFISNMQVSRGGPSVSMVMKTLRDAEVGAVRHPTLNLPLSAQGTVKTQVEFQVTSETQTLNHLLGSSVSLHCSFSMAPDLDLTGVEWRLQHKGSGQLVYSWKTGQGQAKRKGATLEPEELLRAGNASLTLPNLTLKDEGTYICQISTSLYQAQQIMPLNILAPPKVQLHLANKDPLPSLVCSIAGYYPLDVGVTWIREELGGIPAQVSGASFSSLRQSTMGTYSISSTVMADPGPTGATYTCQVAHVSLEEPLTTSMRVLPNPEQRGT
modifications: luminal domains of mouse TAPBPR

Columns and labels:
Assay type in all cases: cell-based
[1] = target: T1, HLA-A2 on SKBR3 and MCF-7 cells (Homo sapiens, UniProt P04439, D140Y/D185E/D98H/E176V/E277Q/G131W/G231S/I119V/I121R/I166T/I218V/L300P/L318F/N151K/N90K/P208A/P217A/Q86G/Q94H/R138H/R169H/T345S); assay: YLL* peptide loading on breast cancer cell lines; settings: for loading of antigenic peptide onto MCF-7 and SKBR3 cells: 100 nM protein, YLL* peptide
T1 construct: endogenous in cells; host or cells: SKBR3 and MCF-7
Procedure: (§1) Bar graphs show (B) the binding YLL* peptide and (C) the binding of TCR-like mAb reagent LMP-1 which recognises the EBV specific peptide YLL in the context of HLA-A2, when SKBR3 and MCF-7 cells were incubated with no peptide, peptide alone, or peptide in the presence of 100 nM soluble TAPBPR or 100 nM TAPBPR-Her2 antibody fusion protein.

HLA-A*68:02 = target: T2, HLA-A*68:02 (Homo sapiens, UniProt P04439, A269V/D140Y/D185E/E176V/E277Q/E87N/F33Y/G231S/I121R/I166T/I218V/L180W/L300P/L318F/N151K/P208A/P217A/Q86R/R138H/R169H/S129P/T345S/V36M); assay: ETV* peptide loading on HeLaM, HeLaM+Her2 and HeLaM^Her2KO cells; settings: Her2-dependent; 10 nM peptide 15 min
T2 construct: HLA-A68 (MHC class I) expressed on HeLa; endogenous in cells; host or cells: HeLaM and derivatives (TAPBPR-KO with or without TAPBPR/tapasin constructs, +Her2, Her2-KO, +PDL1, pD-GFP); in some arms HeLaM-HLA-ABC-KO re-expressing HLA-A*68:02
From the text: Note, there is endogenous Her2 on HeLa.

[2] = target: T3, YLL/HLA-A2 complexes on SKBR3 and MCF-7 cells (Homo sapiens, UniProt P04439, D140Y/D185E/D98H/E176V/E277Q/G131W/G231S/I119V/I121R/I166T/I218V/L300P/L318F/N151K/N90K/P208A/P217A/Q86G/Q94H/R138H/R169H/T345S); assay: TCR-like mAb LMP-1 staining of breast cancer cell lines
T3 construct: endogenous in cells; host or cells: SKBR3 and MCF-7
Procedure: as §1

HLA-A2 = target: T4, HLA-A2 (Homo sapiens, UniProt P04439, D140Y/D185E/D98H/E176V/E277Q/G131W/G231S/I119V/I121R/I166T/I218V/L300P/L318F/N151K/N90K/P208A/P217A/Q86G/Q94H/R138H/R169H/T345S); assay: NLV* and YLL* viral peptide loading on HeLaM-ABC^KO cells -/+ HLA-A2; settings: for loading of viral peptides NLV* and YLL* onto surface expressed HLA-A2: 10 nM peptide 15 min
T4 construct: expressed in transfected cells; host or cells: HeLaM-HLA-ABC-KO
Procedure: For the histograms in A & C 100 nM of the indicated recombinant TAPBPR protein was used. […] The TCR is specific for […] peptide presented on HLA-A2 molecules.

[3] = target: T5, HLA-A68 (MHC class I) expressed on HeLa cells (Homo sapiens, UniProt P04439, A269V/D140Y/D185E/E176V/E277Q/E87N/F33Y/G231S/I121R/I166T/I218V/L180W/L300P/L318F/N151K/P208A/P217A/Q86R/R138H/R169H/S129P/T345S/V36M); assay: ETV* peptide loading on HeLa cells by exogenous mouse TAPBPR
T5 construct: HLA-A68 (MHC class I) expressed on HeLa; endogenous in cells; host or cells: HeLaM and derivatives (TAPBPR-KO with or without TAPBPR/tapasin constructs, +Her2, Her2-KO, +PDL1, pD-GFP); in some arms HeLaM-HLA-ABC-KO re-expressing HLA-A*68:02

Molecule	loading of antigenic peptide onto MCF-7 and SKBR3 cells [1]	loading of antigenic peptide onto MCF-7 and SKBR3 cells ([1]; listed as TAPBPR-her 2 antibody fusion protein)	peptide loading on SKBR3 cell line ([1]; low MHC I expression)	loading of exogenous peptide ETV* onto surface of HeLaM cells (HLA-A*68:02)	YLL/HLA-A2 complexes accessible for TCR binding versus soluble TAPBPR+peptide or peptide alone [2]	binding of TCR-like mAb LMP-1 to treated cells ([2]; fusion protein and peptide)	peptide loading on cells lacking HLA-A, -B and -C expression (HLA-A2)	loading of viral peptides NLV* and YLL* onto surface expressed HLA-A2 (HLA-A2)	loading of viral peptides NLV* and YLL* onto surface expressed HLA-A2 (HLA-A2; listed as TAPBPR-Her2-svFc)	loading of ETVSK*QSNV (ETV*) to HLA-A68 [3]	peptide loading efficiency relative to human TAPBPR [3]
B1	efficiently loads antigenic peptides onto both of these breast cancer cell lines	works extremely efficiently on both these breast cancer cell lines	efficient peptide loading	very efficient at loading exogenous peptide	significantly more YLL/HLA-A2 complexes were accessible for TCR binding	bound extremely well	no peptide loading was observed	could load fluorescent variants	shown to load viral peptides onto HeLa cells expressing HLA-A2	–	–
B2	–	–	–	–	–	–	–	–	–	shown to load fluorescent human neoantigen peptide	less efficient than human TAPBPR
